From patent US20180142032A1 (Sanofi, published 2018) come the findings set out here.

Numbering of substitutions follows the chain as printed.

In one experiment the target is T1, mLAMP1_ΔGYQTI (mouse, UniProt P11438 25-369).
T1 construct: on cells; also called pXL6009; murine LAMP1; not shown: murine transmembrane domain and cytoplasmic tail with GYQTI replaced by 5 Ala
T1 sequence: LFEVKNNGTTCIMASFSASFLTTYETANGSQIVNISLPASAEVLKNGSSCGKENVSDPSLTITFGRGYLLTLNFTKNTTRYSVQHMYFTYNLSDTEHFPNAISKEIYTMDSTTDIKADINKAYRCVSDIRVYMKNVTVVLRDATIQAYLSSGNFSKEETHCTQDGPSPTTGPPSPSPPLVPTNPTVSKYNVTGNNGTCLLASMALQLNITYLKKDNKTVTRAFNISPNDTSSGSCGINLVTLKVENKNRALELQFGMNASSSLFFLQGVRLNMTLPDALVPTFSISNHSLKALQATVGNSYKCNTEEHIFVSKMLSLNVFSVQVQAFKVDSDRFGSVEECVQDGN
Put plainly: flow cytometry, transfected 293-F cells.

The target in experiment [1] is T2, human LAMP1 at the cell surface (human, UniProt P11279 29-417).
T2 construct: native on tumour cells (PDX, Colo205, SW480, LS174T) or from the cloned CDS NM_005561.3 in HEK293 and HCT116; signal peptide 1-28 left out; also called huLAMP1; full length human LAMP1
T2 sequence: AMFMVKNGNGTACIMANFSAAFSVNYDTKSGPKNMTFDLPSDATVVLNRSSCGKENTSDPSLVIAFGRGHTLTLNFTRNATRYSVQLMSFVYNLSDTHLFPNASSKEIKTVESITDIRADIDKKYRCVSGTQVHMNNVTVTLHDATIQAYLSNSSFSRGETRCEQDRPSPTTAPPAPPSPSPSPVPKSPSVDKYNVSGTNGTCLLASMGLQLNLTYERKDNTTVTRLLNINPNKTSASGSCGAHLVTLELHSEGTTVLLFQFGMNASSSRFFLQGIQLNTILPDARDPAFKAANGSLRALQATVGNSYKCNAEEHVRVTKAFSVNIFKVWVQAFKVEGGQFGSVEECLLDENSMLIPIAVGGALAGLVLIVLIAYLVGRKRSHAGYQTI
Put plainly: flow cytometry, HCT116 huLAMP1 clone 8. On the procedure: HCT116 cells were infected by a lentiviral vector allowing stable integration of the human or the cynomolgus LAMP1 CDS in genomic DNA of cells. Individual clones with different densities of human or cynomolgus LAMP1 cell surface localization were derived from a pool of HCT116 infected cells. […] 100 μL/well of goat anti-human IgG conjugated with Alexa488 (Invitrogen; # A11013) was added for 1 h at 4° C. and washed two times with PBS 1% BSA. The antibody binding was evaluated after centrifugation and resuspension of cells in 100 μl fixing solution (paraformaldehyde at 4% in PBS). Samples were read using Galaxy® Flow Cytometry System (Partec). EC50 values were estimated using BIOST@T-SPEED software.
A general note: Flow cytometry measures light scatter and fluorescence of single cells or particles in a stream.

The target in experiment [2] is T3, cynomolgus monkey LAMP1 at the cell surface (cynomolgus monkey, UniProt P11279 29-417 (human entry)).
T3 construct: also called cynoLAMP1; cynomolgus LAMP1
T3 chain: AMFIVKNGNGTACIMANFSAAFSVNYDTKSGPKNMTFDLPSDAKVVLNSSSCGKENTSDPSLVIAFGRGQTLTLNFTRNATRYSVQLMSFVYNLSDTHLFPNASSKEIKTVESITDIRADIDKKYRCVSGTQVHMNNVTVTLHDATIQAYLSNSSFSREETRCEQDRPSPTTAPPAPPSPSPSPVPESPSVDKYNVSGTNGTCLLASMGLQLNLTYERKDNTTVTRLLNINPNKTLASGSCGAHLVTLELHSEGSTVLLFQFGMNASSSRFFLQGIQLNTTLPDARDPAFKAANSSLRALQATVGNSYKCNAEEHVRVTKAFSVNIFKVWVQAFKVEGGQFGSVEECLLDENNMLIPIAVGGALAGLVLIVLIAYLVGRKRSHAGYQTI
Put plainly: flow cytometry, HEK293 cynoLAMP1 clone 44.

Another experiment has as its target T4, cLAMP1::histag (cynomolgus monkey, UniProt P11279 29-380 (human entry)).
T4 construct: extracellular domain with C-terminal tag that includes 6 His; also called cynomolgus LAMP1 (27-380); cynomolgus monkey LAMP1 protein
T4 chain: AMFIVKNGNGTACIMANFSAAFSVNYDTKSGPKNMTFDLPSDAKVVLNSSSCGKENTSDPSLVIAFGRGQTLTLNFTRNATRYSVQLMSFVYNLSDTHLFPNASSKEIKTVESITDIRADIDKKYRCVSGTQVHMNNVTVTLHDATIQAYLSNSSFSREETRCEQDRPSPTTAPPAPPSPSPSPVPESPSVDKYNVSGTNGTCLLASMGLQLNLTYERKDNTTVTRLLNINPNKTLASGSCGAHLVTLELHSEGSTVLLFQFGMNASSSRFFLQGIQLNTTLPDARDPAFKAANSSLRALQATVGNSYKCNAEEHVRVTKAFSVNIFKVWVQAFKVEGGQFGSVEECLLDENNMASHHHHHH
The experiment in a line: ELISA on coated recombinant LAMP1 extracellular domain, detected with anti-mouse IgG-HRP; antibody concentration not given. An excerpt:
The antibody binding was visualized by adding TMB-H₂O₂ buffer and read at a wavelength of 450 nm.
Background: ELISA stands for enzyme-linked immunosorbent assay.

The target in another experiment is T5, LAMP1_mseq4_ΔGYQTI (human; mouse).
T5 construct: on cells; also called pXL6015
Put plainly: flow cytometry, transfected 293-F cells.

A further experiment addresses T6, hLAMP1_ΔGYQTI (human, UniProt P11279 29-412).
T6 construct: also called pXL5626
T6 sequence: T2 sequence with G385A, Y386A, Q387A, T388A, I389A
The experiment in a line: flow cytometry, transfected 293-F cells, experiment 2.

B1: MAb3 (antibody, V domains shown)
VH: QIQLVQSGPELKKPGETVKISCKASGYIFTNYGMNWVKQAPGKGLKWMGWINTYTGESRYADDFKGRFALSLETSASTAYLQINNLENEDMATYFCAREDYYGNSPWFFDVWGAGTTVTVSS
VL: DIQMTQTTSSLSASLGDRVTISCNASQGINKYLNWYQQKPDGTVKLLIYYTSTLHSGVPSRFSGSGSGTDYSLTINNLEPEDIATYYCQQYTKLPFTFGSGTKLEIK
notes: murine monoclonal IgG, kappa, from hybridoma; also called murine MAb3
As for B1, the binding result with mLAMP1_ΔGYQTI is “no binding”.

B2: huMAb1_1 (antibody, human IgG1, kappa)
heavy: not shown
light: DIQMTQSPSSLSASVGDRVTITCKASQDIDRYMAWYQDKPGKAPRLLIHDTSTLQSGVPSRFSGSGSGRDYTLTISNLEPEDFATYYCLQYDNLWTFGGGTKVEIKRTVAAPSVFIFPPSDEQLKSGTASVVCLLNNFYPREAKVQWKVDNALQSGNSQESVTEQDSKDSTYSLSSTLTLSKADYEKHKVYACEVTHQGLSSPVTKSFNRGEC
notes: humanized, VH1-huIgG1 and VL1-huCk
B2: the EC50 (in general, the concentration needed to bring the measured effect to its halfway point) in experiment [1] came out at 15 nM; in experiment [2], 30.1 nM.

B3: MAb1 (antibody, mouse IgG2a, kappa)
heavy: QVQLQQSGAELVKPGASVKMSCKASGYIFTNYNIHWVKKSPGQGLEWIGAIYPGNGDAPYSQKFKDKATLTADKSSSTTYMQLSRLTSEDSAVYYCVRANWDVAFAYWGQGTLVSVSAAKTTAPSVYPLAPVCGDTTGSSVTLGCLVKGYFPEPVTLTWNSGSLSSGVHTFPAVLQSDLYTLSSSVTVTSSTWPSQSITCNVAHPASSTKVDKKIEPRGPTIKPCPPCKCPAPNLLGGPSVFIFPPKIKDVLMISLSPIVTCVVVDVSEDDPDVQISWFVNNVEVHTAQTQTHREDYNSTLRVVSALPIQHQDWMSGKEFKCKVNNKDLPAPIERTISKPKGSVRAPQVYVLPPPEEEMTKKQVTLTCMVTDFMPEDIYVEWTNNGKTELNYKNTEPVLDSDGSYFMYSKLRVEKKNWVERNSYSCSVVHEGLHNHHTTKSFSRTPGK
light: DIQMTQSPPSLSASLGGKVTITCKASQDIDRYMAWYQDKPGKGPRLLIHDTSTLQPGIPSRFSGSGSGRDYSFSISNLEPEDIATYYCLQYDNLWTFGGGTKLEIKRADAAPTVSIFPPSSEQLTSGGASVVCFLNNFYPKDINVKWKIDGSERQNGVLNSWTDQDSKDSTYSMSSTLTLTKDEYERHNSYTCEATHKTSTSPIVKSFNRNEC
notes: murine monoclonal IgG, kappa, from hybridoma; also called murine MAb1
With B3, the binding result with cLAMP1::histag was “binds”. Further, the values for the mean fluorescence with LAMP1_mseq4_ΔGYQTI and with hLAMP1_ΔGYQTI were 891 and 551, respectively.
